Assay results reported in patent US11214614B2, “LTBP complex-specific inhibitors of TGFβ and uses thereof” (Scholar Rock, Inc., priority 2019, dated 2022).

Key:
huLTBP3 proTGFβ1 = huLTBP3 proTGFβ1 (Homo sapiens, UniProt P01137+Q9NS15); experiment: Octet (BLI) binding, IgG captured on AHC tips, antigen at 100 nM; conditions: Table 9, cycle 3, IgG1-agly; for Hu LTBP3-proTGFβ1 Kon: 1:1 fit; for Hu LTBP3-proTGFβ1 Koff: 5-minute dissociation
Experimental: (§1) Suitable methods for in vitro binding assays to determine the parameters of binding kinetics include Bio-layer Interferometry (BLI)-based assays such as Octet, and surface plasmon resonance (SPR)-based assays, such as Biacore systems (see, for example: biophysics.bioc.cam.ac.uk/wp-content/uploads/2011/02/Biacore_assay_handbook.pdf).
(§2) The affinity of SR-AB10, SR-AB2 and SR-AB13 was measured by Octet assay. The protocol used to measure the affinity of the antibodies to the complexes provided herein is summarized below.
(§3) • 96 well black polypropylene plates • AHC Octet tips (anti-human IgG Fc capture tips) (FortdBio) • 10× kinetics buffer (FortdBio) (diluted to 1× in PBS) • reiner Bio-One 96-Well Half Area Microplates (VWR cat #82050-044) Procedure:
(§4) Notes: The volume within each well during an Octet experiment is 100 uL.
(§5) A shake speed of 1000 rpm is used for all assay steps.
(§6) Pre-Wet Tips: • Biosensors must be pre-wet in 1× kinetics buffer (lx KB) for at least 10 minutes before starting an experiment. This can be done inside the Octet or on the bench.
(§7) Loading: • Tips are baselined in 1× KB for 1 minute before loading. • AHC tips are loaded with antibody at a concentration of 1 μg/mL (˜7 nM) for 3 minutes. A limit is set so that loading will stop when any one sensor reaches a response of 1 nanometer. • Tips are baselined in buffer for 1 minute after loading. The antibody should not dissociate from the tips during this time.
(§8) Antigen Association: • TGFβ1 in complex with various presentation molecules was associated to the immobilized antibodies at a single concentration of 100 nM in 1× KB.
(§9) Antibody Dissociation: • Dissociation in 1×KB was performed for 3 minutes.
(§10) Data Analysis using ForteBio Data analysis software 8.2: • Processing: align Y axis to last 5 seconds of baseline, perform inter-step correction with align to dissociation, and perform Savitzky-Golay filtering. • Analysis: 1:1 fitting model is utilized. Fitting is local and full. […] Results:
(§11) LTBP complex-specific antibodies from the first round of affinity maturation/optimization (SR-AB14, SR-AB16, SR-AB17, SR-AB18, SR-AB19) were selected for a second round of affinity maturation/optimization (i.e., CDR-H3 mutagenesis as described herein) and particular progeny antibodies (SR-AB20, SR-AB21, SR-AB22, SR-AB23, SR-AB24, SR-AB25, SR-AB26, SR-AB27, SR-AB28, and SR-AB29) were assessed for their ability to bind various proTGFβl constructs. Binding affinities of the optimized antibodies were measured by Octet against human LTBP1-proTGFβI, human LTBP3-proTGFb1, mouse LTBP1-proTGFβ1, mouse LTBP3-proTGFb1, and GARP-proTGFβl complexes, essentially as described in Example 6. In brief, test antibodies were immobilized to the surface of anti-human Fc capture biosensors (AHC) (ForteBio®) and binding was then tested against the various TGFβ1 complexes at a single concentration of 100 nM to assess binding affinities. The antigens were allowed to associate for 3 minutes followed by a 5-minute dissociation. Kinetics buffer (ForteBio®) was used throughout the experiment, and KD was determined using a 1:1 fitting model for each antibody antigen pair.
(§12) Binding affinities of the optimized antibodies were measured by Octet against human LTBP1-proTGFβ1, human LTBP3-proTGFβ1, mouse LTBP1-proTGFβ1, mouse LTBP3-proTGFβ1, and GARP-proTGFβ1 complexes, essentially as described in Example 6. In brief, test antibodies were immobilized to the surface of anti-human Fc capture biosensors (AHC) (ForteBio®) and binding was then tested against the various TGFβ1 complexes at a single concentration of 100 nM to assess binding affinities. The antigens were allowed to associate for 3 minutes followed by a 5-minute dissociation. Kinetics buffer (ForteBio®) was used throughout the experiment, and KD was determined using a 1:1 fitting model for each antibody antigen pair.

huLTBP1 proTGFβ1 = huLTBP1 proTGFβ1 (Homo sapiens, UniProt P01137+Q14766); experiment: as above; conditions: Table 9, cycle 3, IgG1-agly; for Hu LTBP1-proTGFβ1 Kon: 1:1 fit; for Hu LTBP1-proTGFβ1 Koff: 5-minute dissociation
Experimental: as §1, §2, §3, §4, §5, §6, §7, §8, §9, §10, §11
as §12, with “pair. […]” for “pair.”

[1] = tested on: proTGFβ1 presented by endogenous LTBP1/3 in LN229 cells; experiment: Endogenous LTBP caga assay: LN229 cells transfected with human proTGFβ1 only, CAGA12 luciferase reporter cells; format: cell-based; conditions: Table 20: protocol of Example 10 with Fabs (RefAb also as hIgG4), assay format not stated
proTGFβ1 presented by endogenous LTBP1/3 in LN229 cells, sequence (P01137 30-390): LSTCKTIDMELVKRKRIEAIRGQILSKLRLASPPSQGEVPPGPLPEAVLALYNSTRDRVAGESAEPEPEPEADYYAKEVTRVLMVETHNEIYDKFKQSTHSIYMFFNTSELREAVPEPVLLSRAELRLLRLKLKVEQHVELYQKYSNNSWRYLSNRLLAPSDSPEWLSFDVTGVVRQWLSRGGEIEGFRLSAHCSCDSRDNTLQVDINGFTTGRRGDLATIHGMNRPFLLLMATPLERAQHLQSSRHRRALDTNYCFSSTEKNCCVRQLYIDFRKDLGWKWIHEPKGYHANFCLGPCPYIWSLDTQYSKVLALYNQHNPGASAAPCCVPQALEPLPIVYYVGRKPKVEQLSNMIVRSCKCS

huLTBP1 proTGFβ1, sequence (P01137 30-390): as above
huLTBP1 proTGFβ1, sequence (Q14766 347-1721 limits assumed): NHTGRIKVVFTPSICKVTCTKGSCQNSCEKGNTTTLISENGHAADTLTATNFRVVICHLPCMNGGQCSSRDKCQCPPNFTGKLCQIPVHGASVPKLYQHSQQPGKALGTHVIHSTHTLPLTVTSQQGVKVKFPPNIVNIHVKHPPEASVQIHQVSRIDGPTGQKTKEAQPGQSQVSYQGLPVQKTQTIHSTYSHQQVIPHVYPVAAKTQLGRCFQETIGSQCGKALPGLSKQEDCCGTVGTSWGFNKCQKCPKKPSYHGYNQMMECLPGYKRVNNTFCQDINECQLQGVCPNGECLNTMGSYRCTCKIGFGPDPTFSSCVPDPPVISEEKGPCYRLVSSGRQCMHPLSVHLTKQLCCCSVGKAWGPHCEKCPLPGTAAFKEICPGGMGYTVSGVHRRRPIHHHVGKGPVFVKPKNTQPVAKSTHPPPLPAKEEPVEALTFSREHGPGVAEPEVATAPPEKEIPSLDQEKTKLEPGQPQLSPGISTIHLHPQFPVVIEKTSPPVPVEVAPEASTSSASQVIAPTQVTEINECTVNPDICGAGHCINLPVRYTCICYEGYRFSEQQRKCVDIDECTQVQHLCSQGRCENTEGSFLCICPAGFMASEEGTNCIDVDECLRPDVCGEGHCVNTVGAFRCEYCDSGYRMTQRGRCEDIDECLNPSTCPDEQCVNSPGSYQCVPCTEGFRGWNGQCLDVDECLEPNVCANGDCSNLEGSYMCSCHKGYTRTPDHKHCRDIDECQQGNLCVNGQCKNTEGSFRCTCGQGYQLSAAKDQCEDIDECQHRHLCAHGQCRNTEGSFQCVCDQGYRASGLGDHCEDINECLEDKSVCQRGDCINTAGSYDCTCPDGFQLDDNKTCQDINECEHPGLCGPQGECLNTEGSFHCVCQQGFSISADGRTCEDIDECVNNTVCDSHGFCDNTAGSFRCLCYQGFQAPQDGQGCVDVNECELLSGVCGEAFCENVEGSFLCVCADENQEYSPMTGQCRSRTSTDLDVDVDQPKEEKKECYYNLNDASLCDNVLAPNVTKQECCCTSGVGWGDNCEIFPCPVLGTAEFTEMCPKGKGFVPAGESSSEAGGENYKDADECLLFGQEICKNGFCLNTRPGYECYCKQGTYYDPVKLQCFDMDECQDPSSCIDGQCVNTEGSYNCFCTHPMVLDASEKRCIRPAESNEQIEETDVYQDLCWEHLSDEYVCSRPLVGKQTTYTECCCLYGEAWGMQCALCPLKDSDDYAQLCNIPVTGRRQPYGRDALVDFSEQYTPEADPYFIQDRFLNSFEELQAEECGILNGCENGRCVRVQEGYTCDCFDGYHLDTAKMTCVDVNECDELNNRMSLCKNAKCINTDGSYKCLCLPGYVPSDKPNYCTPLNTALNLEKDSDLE
huLTBP3 proTGFβ1, sequence (P01137 30-390): as the sequence (P01137 30-390) above
huLTBP3 proTGFβ1, sequence (Q9NS15 44-1303): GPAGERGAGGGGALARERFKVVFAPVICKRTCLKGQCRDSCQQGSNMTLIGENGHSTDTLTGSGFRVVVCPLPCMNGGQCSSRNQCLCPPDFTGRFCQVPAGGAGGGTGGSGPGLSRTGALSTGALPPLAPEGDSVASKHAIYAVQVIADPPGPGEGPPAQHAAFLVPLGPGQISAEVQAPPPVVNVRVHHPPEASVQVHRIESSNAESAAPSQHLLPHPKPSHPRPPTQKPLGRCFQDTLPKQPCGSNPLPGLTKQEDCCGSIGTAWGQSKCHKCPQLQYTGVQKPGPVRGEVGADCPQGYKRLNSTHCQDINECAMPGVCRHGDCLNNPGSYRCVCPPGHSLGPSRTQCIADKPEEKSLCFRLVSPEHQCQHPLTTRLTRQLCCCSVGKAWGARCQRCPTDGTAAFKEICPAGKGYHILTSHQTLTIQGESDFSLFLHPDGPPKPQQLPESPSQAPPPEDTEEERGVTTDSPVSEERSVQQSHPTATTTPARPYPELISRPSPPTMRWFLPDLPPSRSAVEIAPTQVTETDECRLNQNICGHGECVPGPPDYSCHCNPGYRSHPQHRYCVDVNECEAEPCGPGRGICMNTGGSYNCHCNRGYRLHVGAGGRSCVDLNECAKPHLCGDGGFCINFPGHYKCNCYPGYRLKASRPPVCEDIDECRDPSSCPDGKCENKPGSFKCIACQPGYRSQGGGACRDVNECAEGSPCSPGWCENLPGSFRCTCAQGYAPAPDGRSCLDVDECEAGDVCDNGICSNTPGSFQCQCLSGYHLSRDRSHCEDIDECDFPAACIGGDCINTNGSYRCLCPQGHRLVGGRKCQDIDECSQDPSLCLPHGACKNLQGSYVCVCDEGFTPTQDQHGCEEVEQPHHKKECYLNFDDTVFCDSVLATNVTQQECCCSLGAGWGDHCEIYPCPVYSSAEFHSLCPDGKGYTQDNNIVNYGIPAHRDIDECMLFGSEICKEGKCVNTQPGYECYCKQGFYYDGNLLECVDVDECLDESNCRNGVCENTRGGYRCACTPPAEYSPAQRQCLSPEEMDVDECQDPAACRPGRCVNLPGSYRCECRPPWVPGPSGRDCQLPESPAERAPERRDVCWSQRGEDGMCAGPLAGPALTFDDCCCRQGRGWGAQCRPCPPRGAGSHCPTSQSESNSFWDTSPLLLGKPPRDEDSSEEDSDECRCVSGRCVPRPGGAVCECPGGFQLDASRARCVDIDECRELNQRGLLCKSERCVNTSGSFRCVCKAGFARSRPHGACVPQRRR

Molecule | Hu LTBP3-proTGFβ1 Kon (huLTBP3 proTGFβ1) [M⁻¹ s⁻¹] | Hu LTBP3-proTGFβ1 Koff (huLTBP3 proTGFβ1) [s⁻¹] | Hu LTBP1-proTGFβ1 Kon (huLTBP1 proTGFβ1) [M⁻¹ s⁻¹] | Hu LTBP1-proTGFβ1 Koff (huLTBP1 proTGFβ1) [s⁻¹] | IC50 [1] [nM]
SR-AB41: cycle 3 light chain-optimized antibody, lineage SR-AB23; CDRs SEQ ID NO: 160-165 (antibody, V domains shown) VH: QVQLVESGGGVVQPGRSLRLSCAASGFTFRSYVMHWVRQAPGKGLEWVAVISHEGSLKYYADSVKGRFTISRDNSKNTLYLQMNSLRAEDTAVYYCARPRIAARRGGFGYWGQGTLVTVSS VL: NFMLTQPHSVSESPGKTVTISCTRSSGNIDNNYVQWYQQRPGSSPTTVIYEDNQRPSGVPDRFSGSIDSSSNSASLTISGLKTEDEADYYCQSYDYDNQAVVFGGGTKLTVL | 255000 | 6e-05 | 203000 | 6e-05 | 
SR-AB48 Fab (antibody, V domains shown) VH: QVQLVESGGGVVQPGRSLRLSCAASGFTFRSYVMHWVRQAPGKGLEWVAVISHEGSGKYYADSVKGRFTISRDNSKNTLYLQMNSLRAEDTAVYYCARPRIAARRGGFGSWGQGTLVTVSS VL: NFMLTQPHSVSESPGKTVTISCTRSSGNIDYNYVQWYQQRPGSSPTTVIYEDNVRPSGVPDRFSGSIDSSSNSASLTISGLKTEDEADYYCQSYDYDTQGVVFGGGTKLTVL |  |  |  |  | 0.523
SR-AB42 Fab (antibody, V domains shown) VH: QVQLVESGGGVVQPGRSLRLSCAASGFTFRSYVMHWVRQAPGKGLEWVAVISHEGSLKYYADSVKGRFTISRDNSKNTLYLQMNSLRAEDTAVYYCARPRIAARRGGFGYWGQGTLVTVSS VL: NFMLTQPHSVSESPGKTVTISCTRSSGNIDNNYVQWYQQRPGSSPTTVIYEDNQRPSGVPDRFSGSIDSSSNSASLTISGLKTEDEADYYCQSYDYDTQGVVFGGGTKLTVL |  |  |  |  | 0.667
SR-AB44: cycle 3 light chain-optimized antibody, lineage SR-AB23; CDRs SEQ ID NO: 178-183 (antibody, V domains shown) VH: QVQLVESGGGVVQPGRSLRLSCAASGFTFRSYVMHWVRQAPGKGLEWVAVISHEGSLKYYADSVKGRFTISRDNSKNTLYLQMNSLRAEDTAVYYCARPRIAARRGGFGYWGQGTLVTVSS VL: NFMLTQPHSVSESPGKTVTISCTRSHGNIDDNYVQWYQQRPGSSPTTVIYEDNVRPSGVPDRFSGSIDSSSNSASLTISGLKTEDEADYYCQSYDSDNQLVVFGGGTKLTVL | 410000 | 6e-05 | 280000 | 6e-05 | 
SR-AB45: cycle 3 light chain-optimized antibody, lineage SR-AB23; CDRs SEQ ID NO: 184-189 (antibody, V domains shown) VH: QVQLVESGGGVVQPGRSLRLSCAASGFTFRSYVMHWVRQAPGKGLEWVAVISHEGSLKYYADSVKGRFTISRDNSKNTLYLQMNSLRAEDTAVYYCARPRIAARRGGFGYWGQGTLVTVSS VL: NFMLTQPHSVSESPGKTVTISCTRSSGAIDDNYVQWYQQRPGSSPTTVIYEDFQRPSGVPDRFSGSIDSSSNSASLTISGLKTEDEADYYCQSYDDDLQGVVFGGGTKLTVL | 491000 | 6e-05 | 310000 | 6e-05 | 
SR-AB61 Fab (antibody, V domains shown) VH: QVQLVESGGGVVQPGRSLRLSCAASGFTFRSYVMHWVRQAPGKGLEWVAVISHEGSGKYYADSVKGRFTISRDNSKNTLYLQMNSLRAEDTAVYYCALPRIAARRGGFGTWGQGTLVTVSS VL: NFMLTQPHSVSESPGKTVTISCTRSSGNIDYNYVQWYQQRPGSSPTTVIYEDNVRPSGVPDRFSGSIDSSSNSASLTISGLKTEDEADYYCQGYDWDTQGVVFGGGTKLTVL |  |  |  |  | 0.47

Second part, the molecule after the results:

Hu LTBP3-proTGFβ1 Kon (huLTBP3 proTGFβ1) [M⁻¹ s⁻¹] | Hu LTBP3-proTGFβ1 Koff (huLTBP3 proTGFβ1) [s⁻¹] | Hu LTBP1-proTGFβ1 Kon (huLTBP1 proTGFβ1) [M⁻¹ s⁻¹] | Hu LTBP1-proTGFβ1 Koff (huLTBP1 proTGFβ1) [s⁻¹] | IC50 [1] [nM] | Molecule
 |  |  |  | 0.495 | SR-AB46 Fab (antibody, V domains shown) VH: QVQLVESGGGVVQPGRSLRLSCAASGFTFRSYVMHWVRQAPGKGLEWVAVISHEGSGKYYADSVKGRFTISRDNSKNTLYLQMNSLRAEDTAVYYCARPRIAARRGGFGSWGQGTLVTVSS VL: NFMLTQPHSVSESPGKTVTISCTRSSGNIDYNYVQWYQQRPGSSPTTVIYEDNVRPSGVPDRFSGSIDSSSNSASLTISGLKTEDEADYYCQSYDSDNQRVVFGGGTKLTVL
 |  |  |  | 0.486 | SR-AB41 Fab (antibody, V domains shown) VH: QVQLVESGGGVVQPGRSLRLSCAASGFTFRSYVMHWVRQAPGKGLEWVAVISHEGSLKYYADSVKGRFTISRDNSKNTLYLQMNSLRAEDTAVYYCARPRIAARRGGFGYWGQGTLVTVSS VL: NFMLTQPHSVSESPGKTVTISCTRSSGNIDNNYVQWYQQRPGSSPTTVIYEDNQRPSGVPDRFSGSIDSSSNSASLTISGLKTEDEADYYCQSYDYDNQAVVFGGGTKLTVL
 |  |  |  | 0.535 | SR-AB51 Fab (antibody, V domains shown) VH: QVQLVESGGGVVQPGRSLRLSCAASGFTFRSYVMHWVRQAPGKGLEWVAVISHEGSGKYYADSVKGRFTISRDNSKNTLYLQMNSLRAEDTAVYYCARPRIAARRGGFGTWGQGTLVTVSS VL: NFMLTQPHSVSESPGKTVTISCTRSSGNIDYNYVQWYQQRPGSSPTTVIYEDNVRPSGVPDRFSGSIDSSSNSASLTISGLKTEDEADYYCQSYDYDNQAVVFGGGTKLTVL
 |  |  |  | 0.742 | SR-AB60 Fab (antibody, V domains shown) VH: QVQLVESGGGVVQPGRSLRLSCAASGFTFRSYVMHWVRQAPGKGLEWVAVISHEGSGKYYADSVKGRFTISRDNSKNTLYLQMNSLRAEDTAVYYCALPRIAARRGGFGTWGQGTLVTVSS VL: NFMLTQPHSVSESPGKTVTISCTRSSGNIDYNYVQWYQQRPGSSPTTVIYEDNVRPSGVPDRFSGSIDSSSNSASLTISGLKTEDEADYYCQSYDYDTQGVVFGGGTKLTVL
 |  |  |  | 0.775 | SR-AB57 Fab (antibody, V domains shown) VH: QVQLVESGGGVVQPGRSLRLSCAASGFTFRSYVMHWVRQAPGKGLEWVAVISHEGSGKYYADSVKGRFTISRDNSKNTLYLQMNSLRAEDTAVYYCALPRIAARRGGFGSWGQGTLVTVSS VL: NFMLTQPHSVSESPGKTVTISCTRSSGNIDYNYVQWYQQRPGSSPTTVIYEDNVRPSGVPDRFSGSIDSSSNSASLTISGLKTEDEADYYCQGYDWDTQGVVFGGGTKLTVL
 |  |  |  | 0.536 | SR-AB55 Fab (antibody, V domains shown) VH: QVQLVESGGGVVQPGRSLRLSCAASGFTFRSYVMHWVRQAPGKGLEWVAVISHEGSGKYYADSVKGRFTISRDNSKNTLYLQMNSLRAEDTAVYYCALPRIAARRGGFGSWGQGTLVTVSS VL: NFMLTQPHSVSESPGKTVTISCTRSSGNIDYNYVQWYQQRPGSSPTTVIYEDNVRPSGVPDRFSGSIDSSSNSASLTISGLKTEDEADYYCQSYDYDNQAVVFGGGTKLTVL
